B1: Bleslumab (antibody, INN chains, looked up, V domains shown)
VH: QLQLQESGPGLLKPSETLSLTCTVSGGSISSPGYYGGWIRQPPGKGLEWIGSIYKSGSTYHNPSLKSRVTISVDTSKNQFSLKLSSVTAADTAVYYCTRPVVRYFGWFDPWGQGTLVTVSS
VL: AIQLTQSPSSLSASVGDRVTITCRASQGISSALAWYQQKPGKAPKLLIYDASNLESGVPSRFSGSGSGTDFTLTISSLQPEDFATYYCQQFNSYPTFGQGTKVEIK
B2: Dacetuzumab (antibody, INN chains, looked up, V domains shown)
VH: EVQLVESGGGLVQPGGSLRLSCAASGYSFTGYYIHWVRQAPGKGLEWVARVIPNAGGTSYNQKFKGRFTLSVDNSKNTAYLQMNSLRAEDTAVYYCAREGIYWWGQGTLVTVSS
VL: DIQMTQSPSSLSASVGDRVTITCRSSQSLVHSNGNTFLHWYQQKPGKAPKLLIYTVSNRFSGVPSRFSGSGSGTDFTLTISSLQPEDFATYFCSQTTHVPWTFGQGTKVEIKR

Assays:
[1] = target: P17-Fc fusion protein (human CD40 extracellular domain fused to human IgG1 Fc) (human) (UniProt P25942); assay: ELISA, P17-Fc against titrated antibody
[2] = target: biotinylated P17-Fc fusion protein (human) (UniProt P25942); assay: ELISA, biotinylated P17-Fc against titrated antibody
[3] = target: human CD40 expressed on the cell surface (human) (UniProt P25942); assay: flow cytometry on CHO-K-huCD40 cells, APC anti-human IgG Fc secondary antibody
[4] = target: human CD40 expressed on the cell surface (human) (UniProt P25942); assay: blocking assay by flow cytometry: CHO-K-huCD40 cells with titrated antibody, then CD40L-biotin (200 ng/mL) and PE-streptavidin; blocked ligand CD40L
[5] = target: P17-Fc fusion protein (human CD40 extracellular domain fused to human IgG1 Fc) (human) (UniProt P25942); assay: ELISA, unbiotinylated P17-Fc against titrated antibody
[6] = target: P17-Fc fusion protein (human CD40 extracellular domain fused to human IgG1 Fc) (human) (UniProt P25942); assay: ELISA on P17-Fc, positive control

Chain of P17-Fc fusion protein (human CD40 extracellular domain fused to human IgG1 Fc) (human) (P25942 21-193 limits assumed): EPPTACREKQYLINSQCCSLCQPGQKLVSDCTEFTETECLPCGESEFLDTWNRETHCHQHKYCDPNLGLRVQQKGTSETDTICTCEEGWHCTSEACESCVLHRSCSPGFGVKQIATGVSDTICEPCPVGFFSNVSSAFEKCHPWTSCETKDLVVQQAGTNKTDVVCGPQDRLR
Chain of biotinylated P17-Fc fusion protein (human) (P25942 21-193 limits assumed): as above
Chain of human CD40 expressed on the cell surface (human) (P25942 21-277): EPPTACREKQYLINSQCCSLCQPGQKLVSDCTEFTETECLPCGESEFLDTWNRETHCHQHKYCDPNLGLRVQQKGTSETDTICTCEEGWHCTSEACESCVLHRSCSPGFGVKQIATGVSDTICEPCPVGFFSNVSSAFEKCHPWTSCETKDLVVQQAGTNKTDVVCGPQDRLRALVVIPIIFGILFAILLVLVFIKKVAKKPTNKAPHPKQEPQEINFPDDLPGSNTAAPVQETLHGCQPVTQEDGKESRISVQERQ

Binder | EC50 (read off the curve) [1] [µg/mL] | EC50 (read off the curve) [2] [µg/mL] | EC50 (read off the curve) [3] [µg/mL] | IC50 (read off the curve) [4] [µg/mL] | EC50 (read off the curve) [5] [µg/mL] | EC50 [6] [µg/mL]
B1 | 0.2 | 0.08 | 0.7 | 1 | 0.08 | 0.047
B2 | 0.3 | 0.08 |  |  | 0.08 | 
